Measurements from IntAct's records for PubMed 23085078.

B1: mRNA-decapping enzyme 1A (Homo sapiens), Q9NPI6 (parent)
chain: MEALSRAGQEMSLAALKQHDPYITSIADLTGQVALYTFCPKANQWEKTDIEGTLFVYRRSASPYHGFTIVNRLNMHNLVEPVNKDLEFQLHEPFLLYRNASLSIYSIWFYDKNDCHRIAKLMADVVEEETRRSQQAARDKQSPSQANGCSDHRPIDILEMLSRAKDEYERNQMGDSNISSPGLQPSTQLSNLGSTETLEEMPSGSQDKSAPSGHKHLTVEELFGTSLPKEQPAVVGLDSEEMERLPGDASQKEPNSFLPFPFEQLGGAPQSETLGVPSAAHHSVQPEITTPVLITPASITQSNEKHAPTYTIPLSPVLSPTLPAEAPTAQVPPSLPRNSTMMQAVKTTPRQRSPLLNQPVPELSHASLIANQSPFRAPLNVTNTAGTSLPSVDLLQKLRLTPQHDQIQTQPLGKGAMVASFSPAAGQLATPESFIEPPSKTAAARVAASASLSNMVLAPLQSMQQNQDPEVFVQPKVLSSAIPVAGAPLVTATTTAVSSVLLAPSVFQQTVTRSSDLERKASSPSPLTIGTPESQRKPSIILSKSQLQDTLIHLIKNDSSFLSTLHEVYLQVLTKNKDNHNL
B2: Proline-rich nuclear receptor coactivator 2 (Homo sapiens), Q9NPJ4-1 (parent)
chain: MGGGERYNIPAPQSRNVSKNQQQLNRQKTKEQNSQMKIVHKKKERGHGYNSSAAAWQAMQNGGKNKNFPNNQSWNSSLSGPRLLFKSQANQNYAGAKFSEPPSPSVLPKPPSHWVPVSFNPSDKEIMTFQLKTLLKVQV
partner: B1 chain

Variants of: B1
Conditions: with PNRC2, Q9NPJ4-1

Variant | effect of a mutation on the interaction
F94A | decreasing interaction strength
W45A | decreasing interaction strength
Y36A | decreasing interaction strength
R98A | decreasing interaction strength
L96A | disrupting interaction strength

Variants of: B2
Conditions: with dcp1a_human DCP1A

Variant | effect of a mutation on the interaction
K109A | disrupting interaction strength
W114A | disrupting interaction strength
P108A | decreasing interaction strength
